Source: PMC7194074, “A Trichome-Specific, Plastid-Localized Tanacetum cinerariifolium Nudix Protein Hydrolyzes the Natural Pyrethrin Pesticide Biosynthetic Intermediate trans-Chrysanthemyl Diphosphate” (Frontiers in Plant Science, 2020)

Test system: CC(C)=C[C@@H]1[C@@H](COP(=O)(O)OP(=O)(O)O)C1(C)C
Assay: purified protein
Settings: 100 mM Tris pH 7.5, 5 mM MgCl2, CPP 0.1 to 5 μM, 5 min, 1 μM enzyme stated for the general reactions

## TcNudix1 (Tanacetum cinerariifolium)
  Km: 0.137 ± 0.05 µM
